Reference: IntAct's records for PubMed 20173330

target: jip4_mouse Spag9 (UniProt Q58A65)
Sequence of UniProt Q58A65 (Q58A65 whole entry): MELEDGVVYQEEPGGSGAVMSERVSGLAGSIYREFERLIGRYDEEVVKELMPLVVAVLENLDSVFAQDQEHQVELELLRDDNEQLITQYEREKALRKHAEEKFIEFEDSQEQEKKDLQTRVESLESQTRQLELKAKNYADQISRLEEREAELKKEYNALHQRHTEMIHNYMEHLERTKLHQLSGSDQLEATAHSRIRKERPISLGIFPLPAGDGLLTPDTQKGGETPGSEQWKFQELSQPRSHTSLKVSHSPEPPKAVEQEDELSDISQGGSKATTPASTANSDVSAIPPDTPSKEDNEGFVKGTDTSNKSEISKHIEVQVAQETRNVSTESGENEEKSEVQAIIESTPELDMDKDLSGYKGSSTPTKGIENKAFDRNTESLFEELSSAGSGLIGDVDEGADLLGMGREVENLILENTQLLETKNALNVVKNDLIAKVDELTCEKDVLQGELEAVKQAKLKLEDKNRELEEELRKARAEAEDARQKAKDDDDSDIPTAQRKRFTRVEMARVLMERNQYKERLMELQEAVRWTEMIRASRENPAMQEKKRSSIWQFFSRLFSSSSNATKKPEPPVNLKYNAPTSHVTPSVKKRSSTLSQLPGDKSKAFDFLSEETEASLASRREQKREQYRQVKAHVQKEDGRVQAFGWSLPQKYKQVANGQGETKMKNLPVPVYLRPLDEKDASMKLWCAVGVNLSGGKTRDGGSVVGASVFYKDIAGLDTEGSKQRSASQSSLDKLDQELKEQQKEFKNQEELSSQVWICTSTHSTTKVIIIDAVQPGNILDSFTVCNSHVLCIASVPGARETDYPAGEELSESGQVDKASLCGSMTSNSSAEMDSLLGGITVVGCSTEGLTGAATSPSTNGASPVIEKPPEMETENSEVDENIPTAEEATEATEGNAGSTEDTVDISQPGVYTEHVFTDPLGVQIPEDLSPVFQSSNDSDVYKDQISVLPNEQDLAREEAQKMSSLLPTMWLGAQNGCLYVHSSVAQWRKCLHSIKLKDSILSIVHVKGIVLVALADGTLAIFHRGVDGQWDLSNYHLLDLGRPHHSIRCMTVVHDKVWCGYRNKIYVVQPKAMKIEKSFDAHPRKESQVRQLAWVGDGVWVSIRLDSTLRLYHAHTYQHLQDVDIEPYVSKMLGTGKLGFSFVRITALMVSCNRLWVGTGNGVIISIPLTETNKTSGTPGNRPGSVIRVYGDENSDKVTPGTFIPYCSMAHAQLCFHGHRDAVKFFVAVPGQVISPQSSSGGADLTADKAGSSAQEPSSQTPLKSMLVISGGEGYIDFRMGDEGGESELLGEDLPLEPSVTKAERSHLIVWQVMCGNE

| effect of a mutation on the interaction | Substance |
| --- | --- |
| increasing interaction | Leucine-rich repeat serine/threonine-protein kinase 2 (Homo sapiens), Q5S007 G2019S |
| increasing interaction | Leucine-rich repeat serine/threonine-protein kinase 2 (Homo sapiens), Q5S007 I2020T |
| increasing interaction | Leucine-rich repeat serine/threonine-protein kinase 2 (Homo sapiens), Q5S007 R1441C |
| decreasing interaction | Leucine-rich repeat serine/threonine-protein kinase 2 (Homo sapiens), Q5S007 Y1699C |
